Data set [1] deals with T1, D-CGRP (biotinylated, all-D alpha-calcitonin gene-related peptide) (Rattus norvegicus) (UniProt P01256).
T1 sequence: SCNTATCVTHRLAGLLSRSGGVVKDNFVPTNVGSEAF
Conditions: 2'-F pyrimidines.

For data set [2], the target named is T2, alpha-CGRP (L) (Homo sapiens) (UniProt P06881).
T2 sequence: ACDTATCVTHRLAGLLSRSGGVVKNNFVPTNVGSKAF
Description: ITC. Conditions: L-RNA; 37 C, activity 80%.

For data set [3], the target named is T1, D-CGRP (biotinylated, all-D alpha-calcitonin gene-related peptide) (Rattus norvegicus). Description: SPR. Conditions: 2'-F pyrimidines; clone shortened by two nucleotides; Biacore and ITC; higher by factor two at 37 C. On the technique in general: In SPR one partner is held on a chip, and binding of the other changes the refractive index at the surface.
Data set [4] shares this target. Description: pulldown. Conditions: 2'-F pyrimidines, bead assay, 37 C, unit uM, probably nM.
Data set [5] deals with T3, calcitonin receptor on SK-N-MC cells (human) (UniProt P30988).
T3 sequence (looked up): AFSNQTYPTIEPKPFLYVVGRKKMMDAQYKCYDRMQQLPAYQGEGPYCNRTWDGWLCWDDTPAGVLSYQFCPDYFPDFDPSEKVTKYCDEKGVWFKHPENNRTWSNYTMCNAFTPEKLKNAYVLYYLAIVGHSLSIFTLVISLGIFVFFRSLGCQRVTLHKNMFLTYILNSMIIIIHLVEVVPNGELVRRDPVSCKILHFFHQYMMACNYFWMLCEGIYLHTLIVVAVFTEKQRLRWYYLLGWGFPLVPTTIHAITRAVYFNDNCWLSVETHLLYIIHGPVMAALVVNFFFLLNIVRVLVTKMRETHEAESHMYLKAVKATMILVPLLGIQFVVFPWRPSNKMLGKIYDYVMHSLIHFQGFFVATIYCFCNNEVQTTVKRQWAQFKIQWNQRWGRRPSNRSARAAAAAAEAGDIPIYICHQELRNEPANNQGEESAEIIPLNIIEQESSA
Description: cell-based or functional assay.

For data set [6], the target named is CGRP receptor on SK-N-MC cells. Description: cell-based or functional assay.
Another data set addresses T4, CGRP (biotinylated) (Rattus norvegicus, UniProt P01256 P01256:83-119).
T4 chain: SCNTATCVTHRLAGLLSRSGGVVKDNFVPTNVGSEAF
Description: SPR; KD in narrow band around G12. Conditions: protein: synthetic; tags: biotin; synthetic peptide, Jerini.

The target in data set [7] is calcitonin receptor-like receptor (CRLR) on SK-N-MC cells (human) (UniProt Q16602). Description: cell-based or functional assay.
calcitonin receptor-like receptor (CRLR) on SK-N-MC cells (human), sequence (Q16602 23-461): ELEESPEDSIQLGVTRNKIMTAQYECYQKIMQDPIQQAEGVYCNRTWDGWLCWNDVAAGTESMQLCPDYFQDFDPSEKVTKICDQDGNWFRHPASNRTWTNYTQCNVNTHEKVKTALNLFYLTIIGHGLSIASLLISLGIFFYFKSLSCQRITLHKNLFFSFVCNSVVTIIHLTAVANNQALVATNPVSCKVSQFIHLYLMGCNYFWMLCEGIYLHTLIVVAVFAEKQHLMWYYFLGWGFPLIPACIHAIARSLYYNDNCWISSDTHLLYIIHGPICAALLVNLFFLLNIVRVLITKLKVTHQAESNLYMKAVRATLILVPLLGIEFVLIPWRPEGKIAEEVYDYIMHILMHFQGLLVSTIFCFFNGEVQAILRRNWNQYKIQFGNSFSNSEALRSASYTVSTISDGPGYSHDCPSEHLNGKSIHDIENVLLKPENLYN
In data set [8] the target is T3, calcitonin receptor on SK-N-MC cells (human). Description: cell-based or functional assay. The source holds these as a separate data set.
In data set [9] the target is CGRP receptor on SK-N-MC cells. Description: cell-based or functional assay. This is another data set of the same source.

Like-named read-outs stand apart in the source and are kept apart here. Where no end group is shown, it is not given here.

The term Kd denotes the concentration at which binding is half-saturated. Take “CGCAGCCUUCACUGCAGUGACGCACGUAUGAUAGUUUCCAUUUUGGACUCCUGCG [732_045]”: in data set [1], the Kd worked out at 30000 nM. The same measure, in the same setting: then “CGCUCAGCCUUCACUGCAGUGACGCACGUAUGAUAGUUUCCAUUUUGGACUCCUGGGCG [732_096]”, with 30000 nM. Consider “GGACUGAUGGCGCGGUCCUAUUACGCCGAGAAGGGAGUGGGGGA [L097 (NOX-504-097) spiegelmer]”, for which the Kd in [2] came to 0.052 µM. On to “GGAGCUCAGCCUUCACUGCAGUGACGCACGUAUGAUAGUUUCCAUUUUGGACUCCUGGGCACCACGGUCGGAUCCAC [clone 732]”, for which the Kd turned out to be 20000 nM in data set [1] (666 with G20-A21 excised (in analogy to clone 732)), 10000 nM in [3] and 23 µM in data set [4]. In the case of “GGAGCUCAGCCUUCACUGCGAAGUGACGCACGUAUGAUAGUUUCCAUUUUGGACUCCUGGGCACCACGGUCGGAUCCAC [clone 666]”, the equilibrium dissociation constant (Kd) in data set [1] (unit uM, probably misprint for nM, method not specified here (Biacore/ITC in Ex. 1)) turned out to be 10000 nM. “GGCAGCCUUCACUGCAGUGACGCACGUAUGAUAGUUUCCAAG / CUUGGACUCCUGCC [732_071a+732_071b]”: the Kd in data set [1] (two-strand binder) was found to be 100000 nM.

Consider “GGCAGCCUUCACUGCAGUGACGCACGUAUGAUAGUUUCCAUUUUGGACUCCUGCC [732_026]”, for which the equilibrium dissociation constant (Kd) in data set [1] (stem shortened to five base pairs, FIG. 7) was found to be 30000 nM.

In the case of “GGCAGCCUUCCUGCAGGACGCACGUAUGAUAGUUUCCUUUGGACUCCUGCC [732_100]”, the Kd in data set [1] (51mer) is 75000 nM.

Regarding “GGCAGCCUUCCUGCAGGACGCACGUAUGAUAGUUUGCUUUGCACUCCUGCC [732_104]”, the Kd in data set [1] was 40000 nM.

Regarding “GGCAGCCUUGCUGCAGCACGCACGUAUGAUAGUUUCCUUUGGACUCCUGCC [732_103]”, the equilibrium dissociation constant (Kd) in data set [1] is 20000 nM.

Take “GGCUCAGCCUUCACUGCAGUGACGCACGUAUGAUAGUUUCCAUUUUGGACUCCUGGGCC [732_029]”: the Kd in [1] was 30000 nM. On to “human amylin (from UniProt P10997 34-70) (peptide)”, for which the EC50, cAMP production in SK-N-MC cells in data set [5] was 3 µM. In [6], “human α-CGRP (from UniProt P06881 83-119) (peptide)” registered an EC50, intracellular cAMP in SK-N-MC cells of 1 µM.

B1: G12d (ssRNA)
RNA: GGAGCUCAGCCUUCACUGCAUCGAAGGCGAUCCAAGUUGUAAGAAUGGGGGUGGCUUGGAGGGCACCACGGUCGGAUCCAG
On to B1, for which the binding result in the data set with CGRP (biotinylated) is listed as “binds”.

B2: G12f (ssRNA)
RNA: GGAGCUCAGCCUUCACUGCAUCGAGGGCGAUCCAAGUUGUAGGAAUGGGGUGGCUUGGAGGGCACCACGGUCGGAUCCAG
On to B2, for which, in the data set with CGRP (biotinylated), the binding result was “binds”.

B3: G12c (ssRNA)
RNA: GGAGCUCAGCCUUCACUGCAUCGAGGCGAUCCAAGUUGAGGAAUGGGGUGGCUUGGAGGGCACCACGGUCGGAUCCAG
Take B3: the binding result in the data set with CGRP (biotinylated) is listed as “binds”.

B4: human adrenomedullin (peptide, UniProt P35318 95-146, looked up)
peptide: YRQSMNNFQGLRSFGCRFGTCTVQKLAHQIYQFTDKDKDNVAPRSKISPQGY
As to B4, in [7], the EC50, cAMP production in SK-N-MC cells was found to be 30 µM and the EC50, intracellular cAMP in SK-N-MC cells came out at 0.03 µM.

B5: rat amylin (peptide, UniProt P12969 38-74, looked up)
peptide: KCNTATCATQRLANFLVRSSNNLGPVLPPTNVGSNTY
With B5, the EC50, cAMP production in SK-N-MC cells in [8] worked out at 1 µM.

B6: G12a (ssRNA)
RNA: GGAGCUCAGCCUUCACUGCAUCGAGGCAUCCAAGUUAUAGGAAUAGGGUGGCUUGAAGGGCACCACGGUCGGAUCCAG
On to B6, for which the binding result with CGRP (biotinylated) is reported as “binds”.

B7: G12b (ssRNA)
RNA: GGAGCUCAGCCUUCACUGCAUCGAGGCAUCCAAGUUAUAGGAAUAGGGUGGCUUGAAGGGCACCACGGUCGGAUCCAG
Turning to B7, the binding result with CGRP (biotinylated) is listed as “binds”.

B8: G12e (ssRNA)
RNA: GGAGCUCAGCCUUCACUGCAUCGAGGCGAUCCAAGUUGUAGGAAUUGGAUGACUUGGAGGGCACCACGGUCGGAUCCAG
Consider B8, for which the binding result with CGRP (biotinylated) is given as “binds”.

B9: G12g (ssRNA)
RNA: GGAGCUCAGCCUUCACUGCAUCGAAGCGAUCCAAGUUGUAGGAAUGGGGUAGCUUGGAGGGCACCACGGUCGGAUCCAG
Turning to B9, in the data set with CGRP (biotinylated), the binding result is “binds”.

B10: rat α-CGRP (calcitonin gene-related peptide I, rat) (peptide, UniProt P01256 83-119, looked up)
peptide: SCNTATCVTHRLAGLLSRSGGVVKDNFVPTNVGSEAF
modifications: ends and bridges not checked; cysteine pairing not given here
In data set [9], B10 gave an EC50, intracellular cAMP in SK-N-MC cells of 1 µM and a cAMP formation in SK-N-MC cells, half-maximum activation of 1 nM.

B11: human β-CGRP (calcitonin gene-related peptide II) (peptide, UniProt P10092 82-118, looked up)
peptide: ACNTATCVTHRLAGLLSRSGGMVKSNFVPTNVGSKAF
modifications: ends and bridges not checked; cysteine pairing not given here
B11 showed an EC50, intracellular cAMP in SK-N-MC cells in data set [9] of 1 µM.

B12: rat adrenomedullin (peptide, UniProt P43145 94-143, looked up)
peptide: YRQSMNQGSRSTGCRFGTCTMQKLAHQIYQFTDKDKDGMAPRNKISPQGY
Take B12: in data set [7], the EC50, cAMP production in SK-N-MC cells was determined as 30 µM and the EC50, intracellular cAMP in SK-N-MC cells stood at 0.03 µM.

Values taken from patent US20060183700A1, “Cgrp binding nucleic acids” (NOXXON Pharma AG, published 2006).
